How the values were obtained:
Test in all cases: cleavage_in_vitro
[1] = system: T1, OMNI-46 (Carnobacterium funditum); settings: TXTL; PAM YAAAR
T1 sequence: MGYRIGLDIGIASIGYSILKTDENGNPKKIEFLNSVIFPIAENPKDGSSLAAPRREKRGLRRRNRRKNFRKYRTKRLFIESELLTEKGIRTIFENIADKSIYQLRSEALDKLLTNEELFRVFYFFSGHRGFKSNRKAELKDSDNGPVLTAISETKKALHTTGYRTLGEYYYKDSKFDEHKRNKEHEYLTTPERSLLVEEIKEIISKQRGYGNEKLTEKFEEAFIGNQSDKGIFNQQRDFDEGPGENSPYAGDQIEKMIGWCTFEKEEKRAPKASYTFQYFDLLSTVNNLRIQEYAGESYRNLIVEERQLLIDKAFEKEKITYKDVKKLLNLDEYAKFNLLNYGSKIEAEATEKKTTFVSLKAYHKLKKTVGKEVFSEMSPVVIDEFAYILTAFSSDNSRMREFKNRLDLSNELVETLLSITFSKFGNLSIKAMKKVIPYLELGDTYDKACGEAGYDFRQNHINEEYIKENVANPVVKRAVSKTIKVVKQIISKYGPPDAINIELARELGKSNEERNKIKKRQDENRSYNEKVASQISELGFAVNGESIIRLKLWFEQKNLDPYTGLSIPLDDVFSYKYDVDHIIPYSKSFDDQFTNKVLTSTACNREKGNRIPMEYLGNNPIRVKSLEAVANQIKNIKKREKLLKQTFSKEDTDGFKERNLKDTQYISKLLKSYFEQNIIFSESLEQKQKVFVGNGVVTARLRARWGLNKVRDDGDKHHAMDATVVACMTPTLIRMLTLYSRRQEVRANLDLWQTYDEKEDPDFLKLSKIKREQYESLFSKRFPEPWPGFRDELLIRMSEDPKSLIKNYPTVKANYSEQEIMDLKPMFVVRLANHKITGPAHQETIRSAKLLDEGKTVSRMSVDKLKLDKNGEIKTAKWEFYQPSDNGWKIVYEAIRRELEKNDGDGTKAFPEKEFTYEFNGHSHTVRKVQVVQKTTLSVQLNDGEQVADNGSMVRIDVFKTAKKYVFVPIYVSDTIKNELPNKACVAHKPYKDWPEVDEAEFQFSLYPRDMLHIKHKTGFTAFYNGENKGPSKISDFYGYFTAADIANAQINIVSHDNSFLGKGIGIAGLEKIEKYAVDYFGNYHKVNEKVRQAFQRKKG

[2] = system: T2, OMNI-42 (Caviibacter abscessus); settings: TXTL; PAM NNGMM (specific NTGCC); FIG. 3F states V2, table states V1
T2 sequence: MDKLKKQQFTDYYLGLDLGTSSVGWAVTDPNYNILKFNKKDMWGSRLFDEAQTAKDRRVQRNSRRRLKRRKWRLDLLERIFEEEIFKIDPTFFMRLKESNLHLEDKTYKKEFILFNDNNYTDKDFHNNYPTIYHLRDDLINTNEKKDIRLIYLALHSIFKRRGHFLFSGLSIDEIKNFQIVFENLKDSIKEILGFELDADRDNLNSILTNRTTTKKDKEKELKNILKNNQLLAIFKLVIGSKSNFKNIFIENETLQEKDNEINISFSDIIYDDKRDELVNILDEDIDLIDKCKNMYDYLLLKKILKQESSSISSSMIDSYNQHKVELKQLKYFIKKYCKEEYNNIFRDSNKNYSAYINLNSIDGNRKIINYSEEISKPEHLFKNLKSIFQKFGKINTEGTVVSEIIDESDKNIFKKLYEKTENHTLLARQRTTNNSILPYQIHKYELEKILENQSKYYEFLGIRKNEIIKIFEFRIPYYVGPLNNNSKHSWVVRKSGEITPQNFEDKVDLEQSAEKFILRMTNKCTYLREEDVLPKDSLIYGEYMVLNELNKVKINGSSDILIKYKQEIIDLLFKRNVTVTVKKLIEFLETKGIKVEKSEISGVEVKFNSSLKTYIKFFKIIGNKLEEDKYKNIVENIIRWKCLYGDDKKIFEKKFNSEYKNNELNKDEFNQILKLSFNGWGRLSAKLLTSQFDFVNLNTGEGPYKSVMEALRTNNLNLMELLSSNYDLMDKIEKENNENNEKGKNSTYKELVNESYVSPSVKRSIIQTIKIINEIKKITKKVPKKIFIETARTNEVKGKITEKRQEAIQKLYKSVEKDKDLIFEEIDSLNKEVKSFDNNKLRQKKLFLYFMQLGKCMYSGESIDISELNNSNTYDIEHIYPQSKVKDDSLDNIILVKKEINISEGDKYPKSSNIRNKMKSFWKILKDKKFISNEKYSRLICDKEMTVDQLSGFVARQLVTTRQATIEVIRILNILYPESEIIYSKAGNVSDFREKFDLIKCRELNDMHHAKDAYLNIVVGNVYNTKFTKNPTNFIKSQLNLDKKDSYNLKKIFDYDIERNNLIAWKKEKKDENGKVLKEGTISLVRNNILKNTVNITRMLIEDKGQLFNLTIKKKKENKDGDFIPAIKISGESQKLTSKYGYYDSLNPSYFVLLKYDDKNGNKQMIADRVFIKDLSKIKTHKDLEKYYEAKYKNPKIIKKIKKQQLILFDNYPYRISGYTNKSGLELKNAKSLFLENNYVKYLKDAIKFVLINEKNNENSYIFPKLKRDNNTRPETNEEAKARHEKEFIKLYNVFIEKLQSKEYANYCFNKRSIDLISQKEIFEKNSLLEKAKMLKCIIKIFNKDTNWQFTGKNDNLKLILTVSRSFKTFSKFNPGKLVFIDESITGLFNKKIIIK

[3] = system: T3, OMNI-43 (Arcobacter sp. SM1702); settings: TXTL; PAM YAAAR; V1, V2 tested
T3 sequence: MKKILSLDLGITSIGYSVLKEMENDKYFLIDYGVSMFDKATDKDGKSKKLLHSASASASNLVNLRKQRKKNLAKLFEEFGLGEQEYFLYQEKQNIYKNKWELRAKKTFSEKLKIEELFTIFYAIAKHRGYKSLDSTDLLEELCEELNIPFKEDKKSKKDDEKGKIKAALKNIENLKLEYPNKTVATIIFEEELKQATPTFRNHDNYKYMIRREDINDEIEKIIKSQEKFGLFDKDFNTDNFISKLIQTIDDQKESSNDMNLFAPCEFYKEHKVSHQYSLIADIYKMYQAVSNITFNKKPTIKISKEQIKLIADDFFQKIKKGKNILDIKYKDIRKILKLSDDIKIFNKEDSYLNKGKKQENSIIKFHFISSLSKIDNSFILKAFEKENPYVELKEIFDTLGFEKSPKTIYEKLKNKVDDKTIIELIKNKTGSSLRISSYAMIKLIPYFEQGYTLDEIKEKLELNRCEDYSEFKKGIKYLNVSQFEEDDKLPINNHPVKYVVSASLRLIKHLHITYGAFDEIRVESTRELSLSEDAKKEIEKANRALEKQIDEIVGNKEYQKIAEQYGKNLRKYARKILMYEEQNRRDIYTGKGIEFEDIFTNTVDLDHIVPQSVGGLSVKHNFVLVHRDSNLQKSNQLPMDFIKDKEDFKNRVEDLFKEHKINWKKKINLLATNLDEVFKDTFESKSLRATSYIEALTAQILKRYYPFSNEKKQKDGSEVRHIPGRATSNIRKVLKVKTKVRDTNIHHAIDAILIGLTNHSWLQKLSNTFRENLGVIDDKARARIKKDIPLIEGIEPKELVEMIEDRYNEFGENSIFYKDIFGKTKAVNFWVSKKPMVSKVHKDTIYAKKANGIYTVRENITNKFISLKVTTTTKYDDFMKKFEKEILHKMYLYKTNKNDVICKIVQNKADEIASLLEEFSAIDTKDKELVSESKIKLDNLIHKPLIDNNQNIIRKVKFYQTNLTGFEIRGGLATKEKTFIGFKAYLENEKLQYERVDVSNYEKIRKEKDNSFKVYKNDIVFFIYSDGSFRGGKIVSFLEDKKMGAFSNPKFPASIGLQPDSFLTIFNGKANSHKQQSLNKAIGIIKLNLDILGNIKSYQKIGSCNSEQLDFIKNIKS

[4] = system: T4, OMNI-44 (Arcobacter mytili); settings: TXTL; PAM NRHAA; FIG. 3H states V2, table states V3
T4 sequence: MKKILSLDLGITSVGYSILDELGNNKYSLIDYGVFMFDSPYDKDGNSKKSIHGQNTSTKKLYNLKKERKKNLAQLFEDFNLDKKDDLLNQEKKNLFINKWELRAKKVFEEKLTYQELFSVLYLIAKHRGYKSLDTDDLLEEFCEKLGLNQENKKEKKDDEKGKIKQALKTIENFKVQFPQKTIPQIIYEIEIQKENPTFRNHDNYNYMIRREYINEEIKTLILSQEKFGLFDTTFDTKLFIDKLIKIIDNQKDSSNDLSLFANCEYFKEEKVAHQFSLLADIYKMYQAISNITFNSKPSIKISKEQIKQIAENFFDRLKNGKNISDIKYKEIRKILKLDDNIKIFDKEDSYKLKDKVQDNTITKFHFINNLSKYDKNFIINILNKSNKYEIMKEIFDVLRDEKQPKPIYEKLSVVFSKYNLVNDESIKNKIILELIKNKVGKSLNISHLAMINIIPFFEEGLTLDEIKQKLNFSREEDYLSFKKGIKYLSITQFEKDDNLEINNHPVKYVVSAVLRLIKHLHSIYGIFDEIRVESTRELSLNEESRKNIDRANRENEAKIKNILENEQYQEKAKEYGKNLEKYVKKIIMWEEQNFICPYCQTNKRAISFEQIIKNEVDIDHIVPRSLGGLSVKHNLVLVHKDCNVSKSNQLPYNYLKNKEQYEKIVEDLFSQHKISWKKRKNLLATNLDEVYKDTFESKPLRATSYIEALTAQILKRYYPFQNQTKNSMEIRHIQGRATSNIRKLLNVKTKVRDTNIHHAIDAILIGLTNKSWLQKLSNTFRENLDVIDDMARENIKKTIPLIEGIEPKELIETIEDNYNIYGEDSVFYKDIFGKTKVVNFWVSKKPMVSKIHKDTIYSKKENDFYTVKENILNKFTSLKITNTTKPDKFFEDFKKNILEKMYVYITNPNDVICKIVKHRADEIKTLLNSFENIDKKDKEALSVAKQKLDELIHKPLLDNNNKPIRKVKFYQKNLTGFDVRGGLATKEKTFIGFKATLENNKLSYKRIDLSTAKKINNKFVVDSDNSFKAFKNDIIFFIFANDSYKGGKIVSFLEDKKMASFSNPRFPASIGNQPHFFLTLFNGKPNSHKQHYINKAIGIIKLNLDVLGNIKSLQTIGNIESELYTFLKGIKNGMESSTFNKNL

Sequence: GGAAGAGCAGAGCCUUGGUCUCGCUAUACGUUCCUUACAAAAUCGGGAAACCGACUUUGCAAGGAACGUAUAGUAAAGGGAGUGCUCUGCACUCUCCUGUAAAGCACUAACCCCAUUUUCUUCGGAGAAUGGGGUUAUCUUUUU / GGAAGAGCAGAGCCTTGGTCTCNNNNNNNN / NNNNNNNNGAGACCAAGGCTCTGCTCTTCC [OMNI-46 T2 sgRNA V2 ; pbPOS T2 protospacer 8N PAM library]
- activity (1-depletion score) [1]: 0.95

Sequence: GGAAGAGCAGAGCCUUGGUCUCGUUUAAGAGUUAUGUAAGAAAUUACAUAACGAGUUUAAAUAAAAAUUUAUUGAAAUCGUCAAAUUAUUUUUGACUAGCCUCUUUUUGAAGAGGUUUUUUU / GGAAGAGCAGAGCCTTGGTCTCNNNNNNNN / NNNNNNNNGAGACCAAGGCTCTGCTCTTCC [OMNI-42 T2 sgRNA V2 ; pbPOS T2 protospacer 8N PAM library]
- activity (1-depletion score) [2]: 0.91

Sequence: GGAAGAGCAGAGCCUUGGUCUCGUUUUAAUACCCCUACAAACUGGAAACAGUUUAAUAGGGGUAUUAAACUAAGGUUGCUAUUUUAGCAACUGACUUUAGGCAGUGGUUUCGACCACUUGCCCUUUUUU / GGAAGAGCAGAGCCTTGGTCTCNNNNNNNN / NNNNNNNNGAGACCAAGGCTCTGCTCTTCC [OMNI-43 T2 sgRNA V1 ; pbPOS T2 protospacer 8N PAM library]
- activity (1-depletion score) [3]: 0.91

Sequence: GGAAGAGCAGAGCCUUGGUCUCGUUUUAAUACCCCUAUAAACUACUAGAAAUAGUAGUUUAAUAGGGGUAUUAAACUAAGACUACUUUAAUAGUAGUUGAUUUUAGGAGAUAGUUUUUCUAUCUCCCUUUUU / GGAAGAGCAGAGCCTTGGTCTCNNNNNNNN / NNNNNNNNGAGACCAAGGCTCTGCTCTTCC [OMNI-44 T2 sgRNA V2 ; pbPOS T2 protospacer 8N PAM library]
- activity (1-depletion score) [4]: 0.96

Source: patent publication US20220213456
